# Measured values from patent US20020142429.
# Tests used:
# [1] = system: T1, amidated 16'mer peptide RKKFGESEKTKTKEFL
# T1 sequence: RKKFGESEKTKTKEFL
# [2] = system: peptides centered around the phosphorylation site of eEF-2
substance,measurement,setting,value
recombinant eEF-2 kinase (as used in the peptide phosphorylation assay),phosphoacceptor activity,[1],"amidation of the peptide further stabilizes the α-helical structure, resulting in stronger phosphoacceptor activity"
same,phosphorylation assays,[2],This strategy did not yield a peptide that was functional in phosphorylation assays (data not shown)
